What was measured:
[1] = biological target: phosphorylated Smad2 (His-tagged, full length, from Sf9 cells co-infected with Alk5 T204D virus) (UniProt Q15796); assay: HTRF competition against 500 nM biotinylated FAST peptide
[2] = biological target: phosphorylated Smad2 (His-tagged, full length, from Sf9 cells co-infected with Alk5 T204D virus) (UniProt Q15796); assay: HTRF, biotin-FAST binding to Smad2-P, no inhibitor
[3] = biological target: T1, Phosphorylated Smad2/4 Complex (Homo sapiens, UniProt Q15796); assay: microplate solid-phase assay; Smad2P4 0.50 ug/well; biotinylated GST-CBP 1:500
[4] = biological target: unphosphorylated Smad2 (His-tagged, full length) (UniProt Q15796); assay: microplate solid-phase assay; Smad2 0.50 ug/well; biotinylated GST-CBP 1:500, duplicate well
[5] = biological target: unphosphorylated Smad2 (His-tagged, full length) (UniProt Q15796); assay: microplate solid-phase assay; Smad2 0.25 ug/well; biotinylated GST-CBP 1:500
[6] = biological target: T1, Phosphorylated Smad2/4 Complex; assay: microplate solid-phase assay; Smad2P4 0.25 ug/well; biotinylated GST-CBP 1:500, duplicate well
[7] = biological target: T1, Phosphorylated Smad2/4 Complex; assay: microplate solid-phase assay; Smad2P4 0.125 ug/well; biotinylated GST-CBP 1:2000, duplicate well
[8] = biological target: T1, Phosphorylated Smad2/4 Complex; assay: microplate solid-phase assay; Smad2P4 0.125 ug/well; biotinylated GST-CBP 1:500
[9] = biological target: T1, Phosphorylated Smad2/4 Complex; assay: microplate solid-phase assay; Smad2P4 0.25 ug/well; biotinylated GST-CBP 1:2000
[10] = biological target: T1, Phosphorylated Smad2/4 Complex; assay: microplate solid-phase assay; Smad2P4 0.125 ug/well; biotinylated GST-CBP 1:1000
[11] = biological target: T1, Phosphorylated Smad2/4 Complex; assay: microplate solid-phase assay; Smad2P4 0.50 ug/well; biotinylated GST-CBP 1:500, duplicate well
[12] = biological target: unphosphorylated Smad2 (His-tagged, full length) (UniProt Q15796); assay: microplate solid-phase assay; Smad2 0.50 ug/well; biotinylated GST-CBP 1:2000
[13] = biological target: T1, Phosphorylated Smad2/4 Complex; assay: microplate solid-phase assay; Smad2P4 0.25 ug/well; biotinylated GST-CBP 1:1000, duplicate well
[14] = biological target: T1, Phosphorylated Smad2/4 Complex; assay: microplate solid-phase assay; Smad2P4 0.50 ug/well; biotinylated GST-CBP 1:1000
[15] = biological target: unphosphorylated Smad2 (His-tagged, full length) (UniProt Q15796); assay: microplate solid-phase assay; Smad2 0.25 ug/well; biotinylated GST-CBP 1:2000
[16] = biological target: T1, Phosphorylated Smad2/4 Complex; assay: microplate solid-phase assay; Smad2P4 0.50 ug/well; biotinylated GST-CBP 1:2000
[17] = biological target: unphosphorylated Smad2 (His-tagged, full length) (UniProt Q15796); assay: microplate solid-phase assay; Smad2 0.50 ug/well; biotinylated GST-CBP 1:1000, duplicate well
[18] = biological target: T1, Phosphorylated Smad2/4 Complex; assay: microplate solid-phase assay; Smad2P4 0.50 ug/well; biotinylated GST-CBP 1:1000, duplicate well
[19] = biological target: T1, Phosphorylated Smad2/4 Complex; assay: microplate solid-phase assay; Smad2P4 0.25 ug/well; biotinylated GST-CBP 1:500
[20] = biological target: T1, Phosphorylated Smad2/4 Complex; assay: microplate solid-phase assay; Smad2P4 0.25 ug/well; biotinylated GST-CBP 1:1000
[21] = biological target: unphosphorylated Smad2 (His-tagged, full length) (UniProt Q15796); assay: microplate solid-phase assay; Smad2 0.50 ug/well; biotinylated GST-CBP 1:1000
[22] = biological target: T1, Phosphorylated Smad2/4 Complex; assay: microplate solid-phase assay; Smad2P4 0.50 ug/well; biotinylated GST-CBP 1:2000, duplicate well
[23] = biological target: T1, Phosphorylated Smad2/4 Complex; assay: microplate solid-phase assay; Smad2P4 0.125 ug/well; biotinylated GST-CBP 1:2000
[24] = biological target: unphosphorylated Smad2 (His-tagged, full length) (UniProt Q15796); assay: microplate solid-phase assay; Smad2 0.25 ug/well; biotinylated GST-CBP 1:2000, duplicate well
[25] = biological target: unphosphorylated Smad2 (His-tagged, full length) (UniProt Q15796); assay: microplate solid-phase assay; Smad2 0.25 ug/well; biotinylated GST-CBP 1:1000, duplicate well
[26] = biological target: T1, Phosphorylated Smad2/4 Complex; assay: microplate solid-phase assay; Smad2P4 0.125 ug/well; biotinylated GST-CBP 1:1000, duplicate well
[27] = biological target: T1, Phosphorylated Smad2/4 Complex; assay: microplate solid-phase assay; Smad2P4 0.125 ug/well; biotinylated GST-CBP 1:500, duplicate well
[28] = biological target: unphosphorylated Smad2 (His-tagged, full length) (UniProt Q15796); assay: microplate solid-phase assay; Smad2 0.50 ug/well; biotinylated GST-CBP 1:500
[29] = biological target: unphosphorylated Smad2 (His-tagged, full length) (UniProt Q15796); assay: microplate solid-phase assay; Smad2 0.50 ug/well; biotinylated GST-CBP 1:2000, duplicate well
[30] = biological target: T1, Phosphorylated Smad2/4 Complex; assay: microplate solid-phase assay, biotinylated GST-CBP, streptavidin-AP
[31] = biological target: unphosphorylated Smad2 (His-tagged, full length) (UniProt Q15796); assay: microplate solid-phase assay; Smad2 0.25 ug/well; biotinylated GST-CBP 1:1000
[32] = biological target: unphosphorylated Smad2 (His-tagged, full length) (UniProt Q15796); assay: microplate solid-phase assay; Smad2 0.25 ug/well; biotinylated GST-CBP 1:500, duplicate well
[33] = biological target: T1, Phosphorylated Smad2/4 Complex; assay: microplate solid-phase assay; Smad2P4 0.25 ug/well; biotinylated GST-CBP 1:2000, duplicate well

Work on “GST-trx-FAST fusion protein (FAST SIM peptide aptamer on thioredoxin scaffold) (from UniProt O75593 327-350) (designed binder)” yielded an IC50 [1] of 250 nM.

Substance “biotinylated FAST peptide (24 mer, Smad interaction motif of human FAST) (from UniProt O75593 327-350)” has an Average Normalized Counts [2] of 1880 counts.

“biotinylated GST-CBP protein (from UniProt P08515 1-218)” showed a relative light units (RLU) [3] of 358000 RLU, a relative light units (RLU) [4] of 26300 RLU and a relative light units (RLU) [5] of 11100 RLU. It also gave a relative light units (RLU) [6] of 191000 RLU, a relative light units (RLU) [7] of 85100 RLU and a relative light units (RLU) [8] of 72000 RLU. It also gave a relative light units (RLU) [9] of 176000 RLU, a relative light units (RLU) [10] of 82900 RLU and a relative light units (RLU) [11] of 236000 RLU. It also gave a relative light units (RLU) [12] of 11300 RLU, a relative light units (RLU) [13] of 182000 RLU and a relative light units (RLU) [14] of 306000 RLU. It also gave a relative light units (RLU) [15] of 6600 RLU, a relative light units (RLU) [16] of 303000 RLU and a relative light units (RLU) [17] of 23500 RLU. It also gave a relative light units (RLU) [18] of 323000 RLU, a relative light units (RLU) [19] of 204000 RLU and a relative light units (RLU) [20] of 181000 RLU. For the same substance, the relative light units (RLU) [21] was 23000 RLU, the relative light units (RLU) [22] was 285000 RLU and the relative light units (RLU) [23] was 82200 RLU. The relative light units (RLU) [24] was 4340 RLU, the relative light units (RLU) [25] was 7830 RLU and the relative light units (RLU) [26] was 82300 RLU. The relative light units (RLU) [27] was 74300 RLU, the relative light units (RLU) [28] was 26600 RLU and the relative light units (RLU) [29] was 11000 RLU. The fold more CBP bound than by an equivalent amount of unphosphorylated Smad [30] was over 30 fold, the relative light units (RLU) [31] was 6680 RLU and the relative light units (RLU) [32] was 8900 RLU. The relative light units (RLU) [33] was 162000 RLU.

— patent US6998240B2, “Screen for selective inhibitors or activators of Smad protein function” (Wisconsin Alumni Research Foundation, priority 2001, dated 2006)
